Biological target: SARS-CoV-2 RBD (reagent of the GenScript sVNT kit L00847) (SARS-CoV-2), P0DTC2
Conditions: remark: other sources report otherwise

B1: Nb21 (VHH)
chain: QVQLVESGGGLVQAGGSLRLSCAVSGLGAHRVGWFRRAPGKEREFVAAIGANGGNTNYLDSVKGRFTISRDNAKNTIYLQMNSLKPQDTAVYYCAARDIETAEYTYWGQGTQVTVSS
With B1 the Inhibition Rate (%) was 14%.
